# Experimental data from the DeepSol protein solubility set.
# Assay: soluble on expression in E. coli; label from the status in PepcDB or PDB records
row,Sequence,soluble on expression in E. coli
1,MVKIYLIEHVIGAVAYDENGNIVDYITNPRDLGKITEELLNNEKGIPFSATVELLKKVNPQEVVVENEAEVPKLQALGYRVSYEPYSKVSRIFRESLPKVAIDIKFASNEEDYYNFLHELSLEYTRRKLRSAAQKRDLLAIQAVRAMDDIDKTINLFSERLREWYSIHFPELDKLIEDHEEYATIVSRFGDRGFLTIDSLKELGFNEQRINRILDAAKKSIGADISEDDLSAMRMIANTILDLYNIRRNLNNYLEGVMKEVAPNVTALVGPALGARLLSIAGSLDELAKMPASTIQVLGAEKALFRALRSGGRPPKHGIIFQYPAIHTSPRWQRGKIARALAAKLAIAARVDAFSGRFIGDQLNEQLKKRIDEIKEKFAQHHHHHHHH,soluble
2,MHIESPIKRRQSTRIYVGNVPIGDGAPIAVQSMTNTRTTDVDATVAQIKSLEKVGADIVRVSVPTMDAAEAFKVIKQQVSVPLVADIHFDYRIALQVAEYGVDCLRINPGNIGNEQRIRSVVDCARDKNIPIRIGVNGGSLEKDIQAKYKEPTAEALLESAMRHVDILDRLNFDQFKVSVKASDVFLAVDSYRLLAKQIAQPLHLGITEAGGARAGSVKSAVGLGMLLSEGIGDTLRISLAADPVEEIKVGFDILKSLRIRSRGINFIACPTCSRQEFDVIATVNELEQRLEDLITPMDVSLIGCVVNGPGEAEVSHMGIAGSNRKSAFYEDGVRQKERFDNDNIVDQLEAKIRAKAATLSKENQIDINQID,not soluble
3,DLKDPIKISIPRYVLCGQGKDAHFEFEVKITVLDETWTVFRRYSRFREMHKTLKLKYAELAALEFPPKKLFGNKDERVIAERRSHLEKYLRDFFSVMLQSATSPLHINKVGLTLSKHTICEFSPFFKKGVFDYS,soluble
4,GAMERKANYAVDAYFREALRVSEPKAPKAPRPPKQPIVQDFQFFPPRLFELLDQEIYYFRKTVGYKVPKNTELGSDATKVQREEQRKIDEAEPLTEEEIQEKENLLSQGFTAWTKRDFNQFIKANEKYGRDDIDNIAKDVEGKTPEEVIEYNAVFWERCTELQDIERIMGQIERGEGKIQRRLSIKKALDQKMSRYRAPFHQLRLQYGNNKGKNYTEIEDRFLVCMLHKLGFDKENVYEELRAAIRASPQFRFDWFIKSRTALELQRRCNTLITLIERENIELEEKERAEKKKKAPKGSVSAGS,soluble
5,MLAKRIIPCLDVRDGQVVKGVQFRNHEIIGDIVPLAKRYAEEGADELVFYDITASSDGRVVDKSWVSRVAEVIDIPFCVAGGIKSLEDAAKILSFGADKISINSPALADPTLITRLADRFGVQCIVVGIDTWYDAETGKYHVNQYTGDESRTRVTQWETLDWVQEVQKRGAGEIVLNMMNQDGVRNGYDLEQLKKVREVCHVPLIASGGAGTMEHFLEAFRDADVDGALAASVFHKQIINIGELKAYLATQGVEIRIC,not soluble
6,MGKKKNSNKSAAAAPAVKHNDRWSSIELGEAKSAAVSHYKEPSKEPKFVHPAKLEKVKRIHDGLNIDRVLSHGPVPKQNGGTKRKHVEVTTQKLENKKPKVEVKKEDEKSKNKKMKNQNKHTALVQNETSTRSTYFVEEPDNENKVTLISNGREIAFKKTEVVESDDEQMIGLDSDEELEDEDETDIDEDEMMIDPKDIERYINFESVEDEEDMEDEEIEDEEFEDEEFEDEEEEADEQEEEEEDVSDEESVVSEMDADSDDEGFIAGKDREAHVISKDKFTRNAPAVDFDKFPFTDEDSVVTSSRAFGFMISPCDVQTFFDKFYQSNVLVVRRKQPTYFGNLFSTARLGELLEKNHLEYGRNINIAQYKNGVRTTLNGQGRAYPQIVKQHLHNMCSVQLVNPQTYDDRIWYLCEVIQEQFGCFVGANTYLTPAGSSGFAPHWDEIDAFLLQVEGRKYWRVWAPESAEEELPLESSDNFTEDDMKGREPVFEGWIEKGDMIYIPRGYIHQARTDSKVHSLHVTVSTGRQWSFANLMEKVVPEAIGVLTDTRHKLRRGLPTGLFDMGGVIDLDYSQEDHFVEKFKMVVDRHMSMLRNLVADQLLESSVDSLAKEFMKQALPPRLTEQEKKLSVLGSSTNLLGDDLVDFTARTKVRLIRRHTQRLLMESEDACFISHRINNSRLFEGRPEQIVEYPISGIDAYRVLSNSYPEWRTLYEIFSLRETKTKSRKENLAAIQLLFQIGVLLVKN,not soluble
7,MAHHHHHHMRPSLPKKVLAWIASYPSYFIVDDPTEKDPSKARIRRASDRQPLDVALELYRWIPEEGISEAALLTKLSEVHRDYVKRIGLRHIVDSLSEWLSFTEAPGGGGGGAEGEEKVLLLRRLQTEVELERAIHTEESKLASGDENSLPVQIEDAEMERRWPKLKYEGTMSQQQASVARAQQRRGRGDI,soluble
8,MSQIMYNYPAMMAHAGDMAGYAGTLQSLGADIASEQAVLSSAWQGDTGITYQGWQTQWNQALEDLVRAYQSMSGTHESNTMAMLARDGAEAAKWGG,soluble
9,KHLPQILCEAMTREAETMAMPDPKLPEEINRTFMQTYADVEQLVPPAKVDRHGSVCIYLPSPASSEEAEANLSWEEQILQDLPRFIIGLQKRGYAPSDIAILVRKTYQAREIARAMLSYQPEPDEEDYPLIPMSDESLSLSGAASIRFLSNLLKFISRPQSDALRQIAYLSYEELRKEKGLAPTEEGNFSAAELAEFANLRRRSLYELAEGLVSFFHSYLPEREMPYLIAWLDLINDFGHERSADLHSFLQWWDETGHAKSRISSAPNSQAVTLMTIHKAKGLGFRVVLIPFLDWNLDDEAAHRHILWCKIDPARSPFNILPVVPIRYKKEMAQTMFATDYFRERADILLDNLNLLYVATTRAKDEMHLWLHPSQKPESLSTVGDLIHLALASLDENKTESDMYCWGSPVISARQKTTDHPSSGLPFTLPKGSLSAVADRLAIRPEGSEFYRRHKPLYHGHVMHRILADIVLAKDIEPALERYVSGGIVTRDEAIELVDRLSVVTSDSRLSRWFDGSGRVLNEQDILLPEGEQRRPDRIILYDDHTDIVDYKFGAVRKVHHAQMENYIRLLVSMGYPSVRGYLWYLPNNEIVGVRSVRGITRSKGEERKEGKGERGIERKAK,not soluble
10,MGGEDDELKGLLGLPEEETELDNLTEFNTAHNKRISTLTIEEGNLDIQRPKRKRKNSRVTFSEDDEIINPEDVDPSVGRFRNMVQTAVVPVKKKRVEGPGSLGLEESGSRRMQNFAFSGGLYGGLPPTHSEAGSQPHGIHGTALIGGLPMPYPNLAPDVDLTPVVPSAVNMNPAPNPAVYNPEAVNEPKKKKYAKEAWPGKKPTPSLLI,soluble
11,MTWLTKDGRFAVYEDPFVTKLMNTIGSMTFDGLGFTLLELYRDLVISADNYFMNYVNYGETPHDVGEESIEDPIYGASYPYWWTDLGPTLVLMLYRDYVFTSNREILEKNYNKIKEIIDWLIRKDMDNDCIPDSKGGYDNSYDGTHMYGASSYIASMFLSALTAFIKMSEILDVKIDDKYYRFLECGKKTFNSLWNGKYFILWKKNDEENTSCLNSQLLGQFWCDILGLPPITDHDKINTALRSIYELNFKASKYCLTNAVREDGSVDSSTAQLRSCWPRVSFAVAAHMILRGMVKEGIEVAKREWETIKELNPFDQSSRIDAIDGKYVGLMSYIGSTSVWLLKLALDKIRLEHHHHHH,not soluble
12,MSLNDLVMDVDLDFADGQSPMRTKKANEIIRDPISGSVVIPIDADKFPKESHNSPLVFKLGNGANENIMHVKSQKDVNLYPVPLSTSDFSENFINYICNLFDIYQDLGSHRIFSRPTIGVISSDYELEHTRVVNMALDSMIIELEILIASYDKLENANIARILELEQCLVILQCLRTFQFIDSINDRATFFDSLLKWTNRTDGEPKVEYIQSIFGQSDSSQVFFTEPFWKLVYQLLLRGLTEQAINTLEKSELAKYLKENCETTSTIFEDFIQLVKNYPLESEEHFREWKSFALELQQNFEDADTKIPVPLRKNLLDAISITAGNRDKILQHSSFWYESLTGFLLYYIPSEELIQEYVGLAVSKTPIDVTNPWETACLKILQNDIFPVLPILESLDNCTASFSAALCESKGLLIDRYTILEENSGSDDIEIDDIFSQRNGMASFLLNNFALELCSMKMKTLWPVAIGLISLSPYNTPSSKKSTIAELIPHYPFETNDDIEWALSVCAKWRLPDIAKEIYTTLGNQMLDNGNTVEAIANFSKAGQYELVKHYSWLLFENAAFQGKPMEDEVLSAIVDGDFNTSELIPDEVLNKVVTNAMRQSLSPYAVLSQFFSNVENERWSKALQQLMSLIEFEYLPKKYTVLLIVKYMYPLFLNDDQRMIDEETLVSLLAAIEKNWDCDDTDSVIAYEKLSEEIADLPKELKSMEKLIRKKLNGKLCLNLMIEGHHHHHH,soluble
13,MSLTEISRFDAYPPTLTVNPIVPADAPATEHLVWTIAQAAEERKAGDLVILKVTDVSYLADYFVICTGFSRTQVRAIADNIEKQVELVHGQLPTHTEGNSESIWVLQDFGDVLVHTFMPEEREFYKLEAFWGHAQEQTLADIATAIGVAYNAPTSPEGHHHHHH,soluble
14,MGSDKIHHHHHHMDFWKCPHCGFVVSKTHQEMTQDQWSQLNSSWHHNFENNRESRTTNQPPYADQALVLAILKENDILDLDDGLDYAAGYGTFSKCLKKYFNIGIRIFDRYVHSSDEGMRYVAQKELSRYKLVINSAMFEHVLNRHALDEVNGLVKDDGVLMLHTVVCERIPKDPGWFYIDTMVHTALHTNKSMSILMDQWGYGASIYSPQAKSWFLFKRDNPLIDDLEAKVAGINHELQTTYLHYKRGFVDYWKGF,not soluble
15,MSYPWSNKNGEAASSSKTTVAPPLSPPRYEKVLDFSTLDTQRHRYEVRDQANQRAVVSSAKAESSMIDKFCKENTRIQTNPGIDLPDDYGTDAIVANAIGDQRIVNNLKCVHVTTFNAVQQMSIQVIREGRGLVVEAPTGIGKTYAFLIPAIEAALKNRQSNCFEYTKPSPSILIMASTSALVDQLFNRCELILGLQCMDNVEPIRDIKIDKLVANHPFTKGQCDIAFCTIGKLKATIECGDVCLDNLKTIILDEADKMIDNCAFGPDINWILDQLKEENLENLQSCFFSATYNKNANGTIALTVLQMRMLGEDDPWSVIICPRMSGYITQRVVRVGRGRPNDIRSHPWVIKMGIIRKLIDDDLKETGCSKDGPYNETIAIFCETVQRVTQVTMALRQLGYNFKPVCSMITKNQQLVTVNDLEFRKIHGVVCTNILARGIDVSSVKHTIIMEMSADFDTYKHRIGRVGRDGCGGKSTVLVEHHQLQGGPASNVIEQLYNFMKESKEDIPQWMQEWIVARRNNNIDSWA,not soluble
16,MPTFSLWLPAGSNNVHPCGDPYAHHLFMRCLYHAKHDPTMKFDVKTTNVNKTSQEFKNTGLRRMPGISAEESGETQTFETEDDILDFLEYLKPERGDDEEAENATCDLFRQFARFVKDVEHRDTAFNTELLRLDKYLSEQETKFLISDDVTHIDCLVLTRLHSIRVAAKMLKNYEIPADLSHVLDYLKAGYATEMFRVSCPSDQEIVLHWTELKDTPRLSAKDRAKLVREEPVFSFSV,not soluble
17,MSLLMTLVDEIKNRSSHVDAAIDELLPVTRPEELYKASRYLVDAGGKRLRPAVLILAAEAVGSNLRSVLPAAVAVELVHNFTLIHDDIMDRDDIRRGMPAVHVKWGEAGAILAGDTLYSKAFEILSKVENEPVRVLKCMDVLSKTCTEICEGQWLDMDFETRKKVTESEYLEMVEKKTSVLYAAAAKIGALLGGASDEVAEALSEYGRLIGIGFQMYDDVLDMTAPEEVLGKVRGSDLMEGKYTLIVINAFEKGVKLDIFGKGEATLEETEAAVRTLTECGSLDYVKNLAISYIEEGKEKLDVLRDCPEKTLLLQIADYMISREYEGHHHHHH,soluble
18,MGSDKIHHHHHHMLPQGVKDQKYDQNENIPVSWNCEESDQNHNKQKRNGSPAEGKAQKGGKETQNVLEDVVPEDAEKGKNIDHSTTPMTITLSGTSRVTFSRKYSSSRPATVPMNRYSLKATFHFSLSKYTFQPVTSMSSITESLGTRSPLTTPTTDSRSFSTLTFSTKSSENTLITFEIGPFSTTIPRNLFSSGSRTMAPSSASPRM,not soluble
19,GAMAGMNIKDRTSEFQQSVLSYKKRNKNFREQQRERLQEKESENFANNTT,soluble
